{
  "source": "patent US8119589B2",
  "about": "“Modulation of CD4+ T cell responses by a tick saliva protein, Salp15 and polypeptides derived therefrom” (University of North Carolina at Charlotte, priority 2004, dated 2012)",
  "key": {"CD4+ T cells": {"test_system": "CD4+ T cells", "experiment": "Salp15488 binding on cell surface by confocal microscopy", "parameters": "species or system mouse", "procedure": "(§1) For colocalization experiments, Jurkat and CD4^+ T cells were cytospun as described herein. HeLa and HeLa-CD4 cells were grown on chamber slides. The cells were fixed and stained with anti-CD4 and Salp15 as follows. Purified Salp15 was labeled using Alexa-488 with the Protein Labeling Kit (Molecular Probes) according to the manufacturer's instructions. Fixed cells were blocked with 5% normal serum and anti-CD16/CD32 (1:100) in PBS, incubated with 1 μg of monoclonal biotinylated anti-CD4 (L3T4) (BD Biosciences Pharmingen) followed by streptavidin594 staining. The cells were then stained with 20 μg/mL of Salp15488. For competition assays, cells were first blocked with 5% normal serum, incubated with either polyclonal anti-CD4 antibody, MT310, OKT4, normal rabbit IgG, Salp15 (0.5 mg/mL) or lysozyme (0.5 mg/mL) followed by staining with Salp15488. All samples were mounted in a GVA Mount (Zymed, San Francisco, Calif., U.S.A.) and visualized with an Olympus Confocal microscope equipped with Fluoview 3.0 software."}, "CD4 on HeLa-CD4 cells": {"target": "T1, CD4 on HeLa-CD4 cells (Homo sapiens, UniProt P01730)", "T1 construct": "host or cells: HeLa", "experiment": "Competition of Salp15488 binding to HeLa-CD4 cells", "details": "Salp15 or lysozyme 0.5 mg/mL", "procedure": "as §1"}, "B cells and macrophages": {"test_system": "B cells and macrophages", "experiment": "Receptor capping in B cells and macrophages (anti-IgM, anti-CD16/CD32 cross-linking)", "format": "cell-based, mouse", "details": "50 μg/mL Salp15; anti-IgM and Fc engagement", "procedure": "For receptor capping studies, mouse primary B and CD11^+ cells were purified by positive selection using biotin anti-mouse CD45R/B220 clone RA3-6B2 and biotin anti-mouse CD11b clone M1/70 (BD Biosciences Pharmingen) respectively, followed by incubation with magnetic microbeads. The cells were analyzed for receptor capping using 25 μg/mL anti-mouse IgM and 25 μg/mL anti-mouse CD16/CD32 respectively, cross-linked with 25 μg/mL of anti-rat IgG594 for 10 min in the presence or absence of 50 μg/mL of Salp15. CD4^+ and CD8^+ T cells were purified by negative selection and incubated with 10 μg/mL anti-CD3 and 1 μg/mL anti-CD28 cross-linked with 10 μg/mL of anti-hamster IgG488 for 10 min in the presence or absence of 50 μg/mL of Salp15."}, "sCD4 [1]": {"target": "T2, sCD4 (Homo sapiens, UniProt P01730)", "T2 construct": "the extracellular four domains of CD4 (sCD4); purchased Research Diagnostics Inc., Flanders, N.J., U.S.A", "experiment": "Competition for sCD4-HRP binding to plate-bound P11", "procedure": "(§2) Purified sCD4 was coated overnight at 4° C. at the indicated concentrations in 0.1M sodium carbonate buffer (pH 9.5) in 96 well plates. Equimolar amounts of lysozyme were used as a non-specific control. The wells were washed, blocked with 10% FCS/PBS for 1 hr at R.T., and incubated with Salp15 (0.4 μM) for 2 hr at 37° C. Salp15 binding was detected by incubation with horseradish peroxidase (HRP)-conjugated anti-His antibody for 1 hr followed by microwell peroxidase substrate (KPL). The reaction was stopped by adding TMB stop solution (KPL). Chemically synthesized overlapping peptides of Salp15 were purchased from GenScript Corporation (Piscataway, N.J., U.S.A). To study the binding of Salp15 and peptides to sCD4, Salp15 (5 μg) and different peptides (0.5 μg) were coated. The wells were washed and blocked prior to incubation with sCD4-HRP (Research Diagnostics Inc., Flanders, N.J., U.S.A.). For competition assays, indicated concentrations of Salp15 or P11 were added to sCD4-HRP and incubated with plate bound P11 (0.1 μg). To estimate the effect of dithiothreitol (DTT) treatment of Salp15 on binding to sCD4, 0.5 μM Salp15 was treated with 10 mM DTT overnight and immobilized onto microtiter plate followed by blocking and incubation with sCD4-HRP."}, "sCD4 [2]": {"target": "T2, sCD4", "experiment": "Microtiter binding of sCD4-HRP to plate-bound Salp15 and synthetic peptides", "details": "plate-bound Salp15 pre-treated with 10 mM DTT", "procedure": "as §2\nDissociation constants were determined by non-linear curve fit. The results are expressed as the mean±S.E. of 3 to 5 individual experiments."}},
  "data": [
    {"substance": "Salp15: secreted salivary protein from Ixodes scapularis, SEQ ID NO: 2; recombinant His-tagged, produced in Drosophila S2 cells", "values": [
      {"measurement": "Binding to CD4+ T cells", "setting": "CD4+ T cells", "value": "bind specifically"},
      {"measurement": "Competition of Salp15488 binding to HeLa-CD4 cells by preincubation", "setting": "CD4 on HeLa-CD4 cells", "value": "competed"},
      {"measurement": "Lipid raft reorganization (receptor capping)", "setting": "B cells and macrophages", "value": "did not affect"},
      {"measurement": "Competition of P11 binding to sCD4 by increasing concentrations of Salp15", "setting": "sCD4 [1]", "value": "could also be competed"},
      {"measurement": "CD4 binding after DTT pre-treatment compared to control Salp15", "setting": "sCD4 [2]", "value": "equivalent binding levels"}
    ]}
  ]
}
